Results taken from patent publication US20180346564A1 (TEIJIN PHARMA, published 2018).

Tests used:
[1] = target: T1, monophosphorylated tau peptide 1×P, TSPRHLSNVS(pS)TGSIDMVDSPC (human, phosphoserine (pS) at peptide position 11 (tau Ser413)); test: SPR Biacore, 1×P peptide immobilized
T1 construct: also called 1xP; 1×P peptide
T1 peptide: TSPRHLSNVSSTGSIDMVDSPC
Description: Antibody binding to immobilized, phosphorylated Tau peptide was measured using a Series S Sensor Chip CM3 (GE Healthcare, BR100536). The chip was activated using an amine coupling kit, then 30 μg/mL phosphorylated Tau peptide (SEQ ID NO:75) in 10 mM sodium acetate, pH 5.0 was injected until 51 RU had been immobilized. The chip was blocked with ethanolamine. A negative control reference surface was prepared similarly, using non-phosphorylated Tau peptide ([…], SEQ ID NO:77). […] Each concentration and several buffer blanks were injected for 3 minutes at a flowrate of 45 μL/minute. The dissociation of the antibody was monitored for 15 minutes. The surface was regenerated with a 30 second injection of 100 mM hydrochloric acid (Fisher Scientific, SA56-1, Waltham, Mass.).
The data were processed and fit using Biacore™ M T200 Evaluation Software version 2.0 or Biacore™ 4000 Evaluation Software version 1.1 (GE Healthcare). The data were “double referenced” by subtracting the response from a negative control flowcell and subtracting the response from a buffer injection or the average response from two buffer injections. The data were then fit with the “1:1 Binding” model to determine the association rate constant, kₐ (M⁻¹s⁻¹, where “M” equals molar and “s” equals seconds) and the dissociation rate constant, kd (s⁻¹). […]

[2] = target: T2, recombinant human phosphorylated Tau protein (80AWB) (human, UniProt P10636-8 1-441, limits assumed, phosphorylated; sites not stated); test: SPR Biacore, phosphorylated Tau protein immobilized
T2 construct: also called Protein Immobilized
Description: Antibody binding to immobilized, phosphorylated Tau protein was measured using Series S Sensor Chips NTA (GE Healthcare, BR100034). The running buffer for the immobilization was 10 mM HEPES, 150 mM […], 0.05% v/v Surfactant P20, pH 7.4 (GE Healthcare, BR100671) and the flow rate was 10 μL/minute. 350 mM EDTA was injected for 1 minute to clean the chip, followed by a 2 minute injection of 0.5 mM NiCl₂ (GE Healthcare, NTA Reagent Kit) to prepare the chip to capture his-tagged protein. The chip was activated according to the manufacturer's instructions using an amine coupling kit (GE Healthcare, BR100633), then 300 nM phosphorylated Tau protein (80AWB) was injected until the desired amount of protein had been immobilized. The chip was blocked with ethanolamine from the amine coupling kit. Each experiment used multiple levels of immobilized phosphorylated Tau protein. The lowest level varied from 54 resonance units (RU) to 452 RU, and the highest level varied from 463 RU to 1020 RU. […] Each concentration and several buffer blanks were injected for 3 minutes at a flowrate of […]. The dissociation of the antibody was monitored for 15 minutes, then the surface was regenerated with a 30 second to 1 minute injection of 100 mM CAPS (Sigma, C6070), 1 M KCl (Sigma, P9541), 1 mM EDTA, 2 mM DTT, pH 10.5. […]

T2 sequence (P10636 other isoform, or with tags, fused parts or gaps limits assumed): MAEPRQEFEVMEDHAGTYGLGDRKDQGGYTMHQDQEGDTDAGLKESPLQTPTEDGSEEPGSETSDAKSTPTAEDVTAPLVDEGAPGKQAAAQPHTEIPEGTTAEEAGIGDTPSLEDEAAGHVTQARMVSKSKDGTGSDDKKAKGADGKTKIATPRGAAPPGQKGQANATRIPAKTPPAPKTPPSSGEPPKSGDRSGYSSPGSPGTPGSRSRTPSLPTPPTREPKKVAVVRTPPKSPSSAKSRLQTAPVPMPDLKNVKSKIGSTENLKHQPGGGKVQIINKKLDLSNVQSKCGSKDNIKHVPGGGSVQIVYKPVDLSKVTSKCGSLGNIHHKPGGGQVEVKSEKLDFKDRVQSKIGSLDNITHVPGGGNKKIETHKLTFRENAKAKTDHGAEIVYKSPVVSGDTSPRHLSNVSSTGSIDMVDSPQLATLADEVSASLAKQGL

B1: Humanized × [MAPT_H] mAb (Ta1505-VL46_G34S/VH11) IgG4 S228P/Kappa (CX) (antibody, V domains shown)
VH: EVQLVESGGGLVQPGGSLRLSCAASGFTFSSFALNWVRQAPGKGLEWVGHIRSKTNNYATFYAASVKDRFTVSRDDSQNTAYLQMNSLKTEDTATYYCVRRGPRDSWFGYWGQGTLVTVSS
VL: DIVMTQSPLSLPVTLGEPASISCRSSQSIVHSNSNTYLEWYLQKPGQSPQLLIYTVSNRFSGVPDRFSGSGSGTDFTLKISRVEAEDLGVYYCFQGSHLPLTFGGGTKVEIKR
notes: also called hu VL46/VH11 G34S IgG4
[1]
  binding result: no binding (tested: 0.37 nM to 30 nM antibody)
[2]
  binding result: no binding (tested: 0.37 nM to 30 nM antibody)
